Ends that are not written are not given here. * marks the point of attachment. Biotin = O=C1N[C@H]2[C@H](CS[C@H]2CCCCC(=O)*)N1
Experiments:
Assay in all cases: labelled AK1967 on biotinylated peptide on avidin plate, chemiluminescence
[1] = molecular target: T1, epitope mapping peptide #1 (N-terminal biotin)
T1 peptide: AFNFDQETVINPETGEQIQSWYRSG
Description: (§1) These peptides include the sequence of the full immunization peptide (SEQ ID No. 2) or fragments thereof, with stepwise removal of one amino acid from either C- or N-terminus (see table 5 for a complete list of peptides).
(§2) High binding 96 well plates were coated with 2 µg Avidin per well (Greiner Bio-One international AG, Austria) in coupling buffer (500 mM Tris-HCl, pH 7.8, 100 mM NaCl). Afterwards plate were washed and filled with specific solutions of biotinylated peptides (10 ng/ well; buffer – 1xPBS with 0.5% BSA)
(§3) The plates were filled with 200 µl of labeled and diluted detection antibody (tracer) and incubated for 4 h at room temperature. Unbound tracer was removed by washing 4 times with 350 µl washing solution (20 mM PBS, pH 7.4, 0.1 % Triton X-100). Well-bound chemiluminescence was measured by using the Centro LB 960 luminometer (Berthold Technologies GmbH & Co. KG).

[2] = molecular target: T2, epitope mapping peptide #2
T2 peptide: Biotin-AFNFDQETVINPETGEQIQ
Description: as §1, §2, §3

[3] = molecular target: T3, epitope mapping peptide #3
T3 peptide: Biotin-AFNFDQETVINPETGEQI
Description: as §1, §2, §3

[4] = molecular target: T4, epitope mapping peptide #4
T4 peptide: Biotin-AFNFDQETVINPETGEQ
Description: as §1, §2, §3

[5] = molecular target: T5, epitope mapping peptide #5
T5 peptide: Biotin-AFNFDQETVINPETGE
Description: as §1, §2, §3

[6] = molecular target: T6, epitope mapping peptide #6
T6 peptide: Biotin-AFNFDQETVINPETG
Description: as §1, §2, §3

[7] = molecular target: T7, epitope mapping peptide #8
T7 peptide: Biotin-AFNFDQETVINPE
Description: as §1, §2, §3

[8] = molecular target: T8, epitope mapping peptide #9
T8 peptide: Biotin-AFNFDQETVINP
Description: as §1, §2, §3

[9] = molecular target: T9, epitope mapping peptide #10
T9 peptide: Biotin-AFNFDQETVIN
Description: as §1, §2, §3

[10] = molecular target: T10, epitope mapping peptide #11
T10 construct: final K stands where DPP3 has R
T10 peptide: ETGEQIQSWYK(Biotin)
Description: as §1, §2, §3

[11] = molecular target: T11, epitope mapping peptide #12
T11 construct: final K stands where DPP3 has R
T11 peptide: PETGEQIQSWYK(Biotin)
Description: as §1, §2, §3

[12] = molecular target: T12, epitope mapping peptide #13
T12 construct: final K stands where DPP3 has R
T12 peptide: NPETGEQIQSWYK(Biotin)
Description: as §1, §2, §3

[13] = molecular target: T13, epitope mapping peptide #14
T13 construct: final K stands where DPP3 has R
T13 peptide: INPETGEQIQSWYK(Biotin)
Description: as §1, §2, §3

[14] = molecular target: T14, epitope mapping peptide #15
T14 construct: final K stands where DPP3 has R
T14 peptide: VINPETGEQIQSWYK(Biotin)
Description: as §1, §2, §3

[15] = molecular target: T15, epitope mapping peptide #16
T15 construct: final K stands where DPP3 has R
T15 peptide: TVINPETGEQIQSWYK(Biotin)
Description: as §1, §2, §3

[16] = molecular target: T16, epitope mapping peptide #17
T16 construct: final K stands where DPP3 has R
T16 peptide: ETVINPETGEQIQSWYK(Biotin)
Description: as §1, §2, §3

binding result [1]: binds | binding result [2]: binds | binding result [3]: binds | binding result [4]: binds | binding result [5]: binds | binding result [6]: binds | binding result [7]: no binding | binding result [8]: no binding | binding result [9]: no binding | binding result [10]: no binding | binding result [11]: no binding | binding result [12]: no binding | binding result [13]: binds | binding result [14]: binds | binding result [15]: binds | binding result [16]: binds
B1: murine monoclonal anti-DPP3 antibody AK1967 (clone 1967) (antibody, V domains shown)
VH: QVTLKESGPGILQPSQTLSLTCSFSGFSLSTSGMSVGWIRQPSGKGLEWLAHIWWNDNKSYNPALKSRLTISRDTSNNQVFLKIASVVTADTGTYFCARNYSYDYWGQGTTLTVSS
VL: DVVVTQTPLSLSVSLGDPASISCRSSRSLVHSIGSTYLHWYLQKPGQSPKLLIYKVSNRFSGVPDRFSGSGSGTDFTLKISRVEAEDLGVYFCSQSTHVPWTFGGGTKLEIK
notes: Acridinium-labelled in the plate assays

Reference: patent US20230295344A1 (published 2023)
